Several values for one entry are separate records, joined by “and”; a condition that tells them apart may be missing. Equal values may be shown once.
Experiments:
[1] = target: T1, full length (mature) human TSLP, recombinant (human, UniProt Q969D9 29-159, biotinylated in the SPR assay on the SA chip); assay: cell-based or functional assay
[2] = target: T1, full length (mature) human TSLP, …; assay: ELISA RBA, geometric mean
[3] = target: T1, full length (mature) human TSLP, …; assay: SPR, biotinylated TSLP on SA chip (Biacore 4000)
[4] = target: T1, full length (mature) human TSLP, …; assay: SPR, biotinylated TSLP on SA chip; all concentrations (footnote 1)
[5] = target: T1, full length (mature) human TSLP, …; assay: SPR, biotinylated TSLP on SA chip; value excluding 1000 nM concentration
[6] = target: T2, human IL-7 (human, UniProt P13232 26-177); assay: SPR (Biacore)
T2 construct: Immobilised on a CM4 chip by primary amine coupling; also called Mature processed human IL-7
T2 sequence: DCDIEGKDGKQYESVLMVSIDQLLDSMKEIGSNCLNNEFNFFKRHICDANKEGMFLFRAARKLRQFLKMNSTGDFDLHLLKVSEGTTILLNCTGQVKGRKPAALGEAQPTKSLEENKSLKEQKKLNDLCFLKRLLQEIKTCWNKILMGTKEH

[7] = target: T1, full length (mature) human TSLP, …; assay: cell-based or functional assay; remark: listed apart in the source
[8] = target: T3, native human TSLP (supernatant from stimulated human lung fibroblasts) (human, UniProt Q969D9 29-159); assay: cell-based or functional assay
[9] = target: T1, full length (mature) human TSLP, …; assay: cell-based or functional assay; remark: listed apart in the source
[10] = target: glycosylated recombinant human TSLP expressed from HEK cells (human, UniProt Q969D9 29-159, glycosylated); assay: cell-based or functional assay
[11] = target: T1, full length (mature) human TSLP, …; assay: RBA, geometric mean (n = 2)
[12] = target: T1, full length (mature) human TSLP, …; assay: SPR with biotinylated TSLP; mean of two experiments
[13] = target: T4, short form TSLP (synthetic biotinylated 63 amino acid peptide comprising residues 69-131 of mature full … (human, biotinylated (position not given))); assay: ForteBio Octet, biotinylated sfTSLP on streptavidin tips
T4 construct: also called sfTSLP; sf TSLP

[14] = target: T1, full length (mature) human TSLP, …; assay: TSLP receptor binding assay (RBA, ELISA, OD 450 nm): dAb titrated against recombinant human TSLP (1 ng/ml); blocked is the binding of TSLP to the plate-coated TSLP receptor complex
[15] = target: T3, native human TSLP (supernatant from …); assay: TSLP receptor binding assay (RBA, ELISA, OD 450 nm): dAb titrated against native human TSLP (supernatant of stimulated human lung fibroblasts); blocked is the binding of TSLP to the plate-coated TSLP receptor complex

T4 sequence (peptide, as listed by the source): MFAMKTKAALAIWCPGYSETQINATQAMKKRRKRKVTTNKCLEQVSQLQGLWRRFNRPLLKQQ

B1: DOM30h-440-65 (other)
VL: DIQMTQSPSSLSASVGDRVTITCRASRPIRNWLDWYQQKPGKAPKLLIWGASHLQSGVPSRFSGSGSGTDFTLTISSLQPEDFATYYCMQIGEDPVTFGQGTKVEIKR
B1 was tested, and the “pSTAT5 assay in SW756 cells, Geometric Mean IC50” value (“pSTAT5 assay in SW756 cells” below) [1] was 0.78 nM, the IC50 [2] was 0.69 nM and the Kd [3] was 3.84 nM.

B2: DOM30h-440-53 (other)
VL: DIQMTQSPSSLSASVGDRVTITCRASRPIRNWLDWYQQKPGKAPKLLIWGASHLQSGVPSRFSGSGSGTDFTLTISSLQPEDFATYYCLQVGEDPVTFGQGTKVEIKR
With B2 the “pSTAT5 assay in SW756 cells” value [1] was 1.92 nM, the IC50 [2] was 2 nM and the Kd [3] was 3.05 nM.

B3: DOM30h-440-54 (other)
VL: DIQMTQSPSSLSASVGDRVTITCRASRPIRNWLDWYQQKPGKAPKLLIWGASHLQSGVPSRFSGSGSGTDFTLTISSLQPEDFATYYCWQLAFDPTTFGQGTKVEIKR
B3 was tested, and the “pSTAT5 assay in SW756 cells” value [1] was 1.52 nM, the IC50 [2] was 2.15 nM and the Kd [3] was 3.82 nM.

B4: DOM30h-440-55 (other)
VL: DIQMTQSPSSLSASVGDRVTITCRASRPIRNWLDWYQQKPGKAPKLLIWGASHLQSGVPSRFSGSGSGTDFTLTISSLQPEDFATYYCVQIGEDPVTFGQGTKVEIKR
B4 was tested, and the “pSTAT5 assay in SW756 cells” value [1] was 1.1 nM, the IC50 [2] was 0.87 nM and the Kd [3] was 2.78 nM.

B5: DOM30h-440-56 (other)
VL: DIQMTQSPSSLSASVGDRVTITCRASRPIRNWLDWYQQKPGKAPKLLIWGASHLQSGVPSRFSGSGSGTDFTLTVSSLQPEDFATYYCMQIGEDPVTFGQGTKVEIKR
With B5 the “pSTAT5 assay in SW756 cells” value [1] was 0.99 nM, the IC50 [2] was 0.56 nM and the Kd [3] was 2.47 nM.

B6: DOM30h-440-57 (other)
VL: DIQMTQSPSSLSASVGDRVTITCRASRPIRNWLDWYQQKPGKAPELLIWGASHLQSGVPSRFSGSGSGTDFTLTISSLQPEDFATYYCMQIGDDPVTFGQGTKVEIKR
For B6, the “pSTAT5 assay in SW756 cells” value [1] was 0.56 nM, the IC50 [2] was 0.34 nM and the Kd [4] was 3.48 nM. It also gave a Kd [5] of 1.5 nM.

B7: DOM30h-440-58 (other)
VL: DIQMTQSPSSLSASVGDRVTITCRASRPIRNWLDWYQQKPGKAPKLLIWGASHLQSGVPSRFSGSGSGTDFTLTISSLQPEDFATYYCLQIADDPVTFGQGTKVEIKR
In the case of B7, the “pSTAT5 assay in SW756 cells” value [1] is reported as 1.91 nM, the IC50 [2] is reported as 1.41 nM and the Kd [3] is reported as 2.65 nM.

B8: DOM30h-440-60 (other)
VL: DIQMTQSPSSLSASVGDRVTITCRASRPIRNWLDWYQQKPGKAPKLLIWGASHLQSGVPSRFSGSGSGTDFTLTISSLQPEDFATYYCIQFGEDPVTFGQGTKVEIKR
For B8, the “pSTAT5 assay in SW756 cells” value [1] was 0.7 nM, the IC50 [2] was 0.32 nM and the Kd [3] was 0.14 nM.

B9: DOM30h-440-63 (other)
VL: DIQMTQSPSSLSASVGDRVTITCRASRPIRNWLDWYQQKPGKAPKLLIWGASHLQSGVPSRFSGSGSGTDFTLTISSLQPEDFATYYCMQIGSDPVTFGQGTKVEIKR
B9 was tested, and the “pSTAT5 assay in SW756 cells” value [1] was 2.21 nM, the IC50 [2] was 1.55 nM and the Kd [3] was 4.22 nM.

B10: DOM30h-440-64 (other)
VL: DIQMTQSPSSLSASVGDRVTITCRASRPIRNWLDWYQQKPGKAPKLLIWGASHLQSGVPSRFSGSGSGTDFTLTISSLQPEDFATYYCLQIGEDPVTFGQGTKVEIKR
In the case of B10, the “pSTAT5 assay in SW756 cells” value [1] is reported as 3.26 nM, the IC50 [2] is reported as 0.95 nM and the Kd [3] is reported as 6.17 nM.

B11: DOM30h-440-81/86 (other)
VL: DIQMTQSPSSLSASVGDRVTITCRASRPIRNWLDWYQQKPGKAPKLLIWGASHLQSGVPSRFSGSGSGTDFTLTISSLQPEDFATYYCVQIGEDPVTFGQGTKVEIK
notes: Vk single variable domain (dAb); DOM30h-440-55 with the C-terminal R removed (-R); also called DOM30h-440-86; TSLP dAb
In the case of B11, the binding result [6] is reported as “no binding”, the “IL-5 production from human PBMC stimulated with a mixture of TSLP, IL-33 and IL-25, Geometric Mean IC50” value [7] is reported as 129 nM and the “native TSLP-induced STAT5 phosphorylation in SW756 cells, Geometric Mean IC50” value [8] is reported as 0.86 nM. For the same binder, the “Inhibition of TSLP-induced TARC in whole blood, Geometric Mean IC50 (n = 7)” value [9] was 2.4 nM, the “Inhibition of TSLP-induced pSTAT5 in SW756 cells, Geometric Mean IC50 (n = 5)” value [9] was 1.92 nM and the “Inhibition of TSLP-induced TARC in whole blood, Geometric Mean IC50 (n = 6)” value [10] was 3.1 nM. For the same binder, the “Inhibition of TSLP-induced pSTAT5 in SW756 cells, Geometric Mean IC50 (n = 3)” value [10] was 0.55 nM, the IC50 [11] was 1.94 nM and the Kd [12] was 0.867 nM and 0.87 nM. For the same binder, the koff [12] was 0.000508 s⁻¹, the kon [12] was 619000 M⁻¹ s⁻¹ and the binding result [13] was “no binding”. For the same binder, the “IC50 (read off the curve)” value [14] was roughly 4 nM and the “IC50 (read off the curve)” value [15] was roughly 0.1 nM.
